Assays:
h-MMP-9/h-TIMP-1 complex = target: T1, h-MMP-9/h-TIMP-1 complex (human, UniProt P14780 107-457; P01033 24-207, limits assumed); assay: SPR (Biacore 3000), antibody captured via anti-Fc
T1 construct: Preformed non-covalent complex flowed over the antibody surfaces; also called huTIMP-1/cat-huMMP-9; h-TIMP-1/h-MMP-9 complex
Description: Experiments were performed at 25° C. with the help of a Biacore 3000 instrument. The MMP-9 binding protein (M0166F10) and the M0237-D02 antibody were coated to a CM5 chip either via standard amine coupling or using an anti-Fc antibody surface. Then either the active, human MMP-9 catalytic domain (BIOMOL, SE-244), the human pro-MMP-9 (R&D, 911-MP), the human TIMP-1 (R&D, 970-TM) or a h-MMP-9/h-TIMP-1 complex were flowed over the antibody surfaces, and binding was recorded.
It was shown that the human MMP-9 catalytic domain binds to M0166-F10, whether this antibody is directly captured via amine coupling or captured with an anti-Fc antibody surface.

[1] = target: T2, Human MMP-9 catalytic domain (BIOMOL, SE-244) (human, UniProt P14780 107-457, limits assumed); assay: plot of kobs against antibody concentration, inhibition progress curves
T2 construct: domain: catalytic domain; also called Cat-huMMP-9; cat-huMMP-9
T2 sequence (P14780 107-457 limits assumed): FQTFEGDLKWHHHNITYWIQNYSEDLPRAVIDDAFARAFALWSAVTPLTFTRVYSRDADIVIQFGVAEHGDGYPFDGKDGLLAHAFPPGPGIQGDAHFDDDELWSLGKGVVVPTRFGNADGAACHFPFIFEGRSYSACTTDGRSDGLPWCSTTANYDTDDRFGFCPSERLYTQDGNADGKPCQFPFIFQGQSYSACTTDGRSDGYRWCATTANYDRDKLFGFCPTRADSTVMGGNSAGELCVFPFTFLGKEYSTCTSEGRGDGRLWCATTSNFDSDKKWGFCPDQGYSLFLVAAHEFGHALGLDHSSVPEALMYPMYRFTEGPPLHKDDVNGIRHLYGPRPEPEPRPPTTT

[2] = target: T3, human MMP-2 (Biomol #SE-237) (human, UniProt P08253 110-452, limits assumed); assay: Ki,app, enzyme inhibition assay (fluorogenic peptide substrate), IgG
T3 construct: also called hMMP-2
T3 sequence (P08253 110-452 limits assumed): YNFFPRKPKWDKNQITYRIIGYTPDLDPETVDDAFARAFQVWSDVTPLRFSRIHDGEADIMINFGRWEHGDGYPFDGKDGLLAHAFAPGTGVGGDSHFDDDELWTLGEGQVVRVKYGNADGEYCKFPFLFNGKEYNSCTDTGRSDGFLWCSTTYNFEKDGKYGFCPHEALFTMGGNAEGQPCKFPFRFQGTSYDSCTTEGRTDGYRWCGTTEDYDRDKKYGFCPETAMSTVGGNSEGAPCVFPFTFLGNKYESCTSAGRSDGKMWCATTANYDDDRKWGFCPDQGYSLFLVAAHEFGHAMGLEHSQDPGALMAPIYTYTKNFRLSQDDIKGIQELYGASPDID

[3] = target: T4, Mouse MMP-9 (R&D, 909-MM), APMA-activated (mouse, UniProt P41245 108-730, limits assumed); assay: Ki,app, enzyme inhibition assay (fluorogenic peptide substrate), IgG; told as Ki of 1.3±0.1 nM in Example 2
T4 construct: also called mMMP-9; mouse MMP-9 (R&D Systems #909-MM-010)
T4 sequence (P41245 108-730 limits assumed): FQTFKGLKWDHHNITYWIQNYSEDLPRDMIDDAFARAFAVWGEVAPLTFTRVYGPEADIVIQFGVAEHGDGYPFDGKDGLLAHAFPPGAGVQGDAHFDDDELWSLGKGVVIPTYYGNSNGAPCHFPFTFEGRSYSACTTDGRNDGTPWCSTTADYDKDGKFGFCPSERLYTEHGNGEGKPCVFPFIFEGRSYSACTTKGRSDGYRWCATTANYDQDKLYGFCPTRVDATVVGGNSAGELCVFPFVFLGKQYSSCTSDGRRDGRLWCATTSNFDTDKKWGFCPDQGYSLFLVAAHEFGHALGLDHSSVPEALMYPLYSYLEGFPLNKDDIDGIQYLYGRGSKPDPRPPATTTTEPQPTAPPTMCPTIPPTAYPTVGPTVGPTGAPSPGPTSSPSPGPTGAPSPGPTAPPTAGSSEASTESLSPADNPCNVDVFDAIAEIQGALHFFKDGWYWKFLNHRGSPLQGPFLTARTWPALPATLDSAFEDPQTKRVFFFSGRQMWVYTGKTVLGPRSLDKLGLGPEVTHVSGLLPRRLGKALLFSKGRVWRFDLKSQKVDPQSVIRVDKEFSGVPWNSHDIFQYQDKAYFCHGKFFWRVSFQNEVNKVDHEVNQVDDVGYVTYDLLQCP
Description: (§1) Materials: [0495] Substrate: Mca-KPLGL-Dap(Dnp)-AR-NH₂ (M-2350) from BACHEM (521575). A 10 mM stock solution was prepared in DMSO. [0496] Enzymes: [0497] Human MMP-9 catalytic domain (BIOMOL, SE-244). Enzyme concentration was measured by titration with TIMP-1 (2522-104) [0498] Mouse MMP-9 (R&D, 909-MM), APMA-activated. [0499] M0237-D02 hIgG1: 2517-014. Dialysed against TCN. [0500] TCNB: 50 mM Tris/HCl, 10 mM CaCl₂, 150 mM NaC, […] Brij 35, pH 7.5. [0501] -96-well black plates from Perkin Elmer (6005270) [0502] Spectramax M2e to measure fluorescence emission of the substrate upon hydrolysis (temperature control set at 30° C.; λexc=328 nm and λₑₘ=393 nm)
(§2) The enzyme (final concentration=0.23 and 0.17 nM for the human and mouse MMP-9, respectively) was preincubated with various concentrations (0-50 nM) of M0237-D02 for 1 h at 30° C. The substrate was then added to a final concentration ranging from 5 to 40 μM and initial rates were recorded.

[4] = target: T2, Human MMP-9 catalytic domain (BIOMOL, …); assay: Ki,app, enzyme inhibition assay (fluorogenic peptide substrate), IgG; told as Ki of 0.92±0.04 nM in Example 2
Description: as §1, §2

T1 sequence (P14780 107-457 limits assumed, chain 1 of 2): as the sequence (P14780 107-457 limits assumed) above
T1 sequence (P01033 24-207 limits assumed, chain 2 of 2): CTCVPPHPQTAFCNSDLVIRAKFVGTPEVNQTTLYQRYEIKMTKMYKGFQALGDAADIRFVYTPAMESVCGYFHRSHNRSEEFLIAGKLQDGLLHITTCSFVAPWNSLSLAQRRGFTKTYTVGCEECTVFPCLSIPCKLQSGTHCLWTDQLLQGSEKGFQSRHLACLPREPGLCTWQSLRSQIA

B1: 539A-M0237-D02 hIgG1 (antibody, V domains shown)
VH: EVQLLESGGGLVQPGGSLRLSCAASGFTFSQYPMWWVRQAPGKGLEWVSYIVPSGGRTYYADSVKGRFTISRDNSKNTLYLQMNSLRAEDTAVYYCAKDRAYGDYVGWNGFDYWGQGTLVTVSS
VL: DIQMTQSPATLSLSPGERATLSCRASQSISSFLAWYQQKPGQAPRLLIYDASYRATGIPARFSGSGSGTDFTLTISSLEPEDYAVYYCQQRGNWPITFGQGTRLEIK
notes: Tested as human IgG1 (parental); also called M237-D02; DL8
B1 was tested, and the binding result (h-MMP-9/h-TIMP-1 complex) was “no binding”, the koff [1] was ~0.0004 s⁻¹ and the kon [1] was ~70000 M⁻¹ s⁻¹. For the same binder, the Ki [2] was 17 nM, the Ki [3] was 1.3 nM and the Ki [4] was 0.92 nM.
